Tests used:
[1] = carboxylate reductase activity: N7-acetyl-7-aminoheptanoate to N7-acetyl-7-aminoheptanal (NADPH consumption, A340); type: biochemical; details: purified enzyme enhanced by sfp gene product, 2 mM N7-acetyl-7-aminoheptanoate, pH 7.5, room temperature, 20 min; against the empty vector control (FIG. 10)
Procedure: The activity of each of the N-terminal His-tagged carboxylate reductases of SEQ ID NOs: 3, 5, and 6 (see Examples 2 and 3, and FIG. 6) for converting N7-acetyl-7-aminoheptanoate to N7-acetyl-7-aminoheptanal was assayed in triplicate in a buffer composed of a final concentration of 50 mM HEPES buffer (pH=7.5), 2 mM N7-acetyl-7-aminoheptanoate, 10 mM MgCl2, 1 mM ATP, and 1 mM NADPH. The assays were initiated by adding purified carboxylate reductase and phosphopantetheine transferase or the empty vector control to the assay buffer containing the N7-acetyl-7-aminoheptanoate then incubated at room temperature for 20 min. The consumption of NADPH was monitored by absorbance at 340 nm.

[2] = carboxylate reductase activity: pimelate to pimelate semialdehyde (NADPH consumption, A340); type: biochemical; details: purified enzyme enhanced by sfp gene product, 2 mM pimelate, pH 7.5, room temperature, 20 min; against the empty vector control (FIG. 8)
Procedure: A nucleotide sequence encoding a HIS-tag was added to the nucleic acid sequences from Segniliparus rugosus and Segniliparus rotundus that encode the carboxylate reductases of SEQ ID NOs: 4 (EFV11917.1) and 6 (ADG98140.1), respectively (see FIG. 6), such that N-terminal HIS tagged carboxylate reductases could be produced. Each of the modified genes was cloned into a pET Duet expression vector along with a sfp gene encoding a HIS-tagged phosphopantetheine transferase from Bacillus subtilis, both under the T7 promoter. Each expression vector was transformed into a BL21[DE3] E. coli host and the resulting recombinant E. coli strains were cultivated at 37° C. in a 250 mL shake flask culture containing 50 mL LB media and antibiotic selection pressure, with shaking at 230 rpm. Each culture was induced overnight at 37° C. using an auto-induction media.
The pellet from each induced shake flask culture was harvested via centrifugation. Each pellet was resuspended and lysed via sonication, and the cell debris was separated from the supernatant via centrifugation. […]
Enzyme activity assays (i.e., from pimelate to pimelate semialdehyde) were performed in triplicate in a buffer composed of a final concentration of 50 mM HEPES buffer (pH=7.5), 2 mM pimelate, 10 mM MgCl2, 1 mM ATP and 1 mM NADPH. […] The consumption of NADPH was monitored by absorbance at 340 nm. […]

[3] = carboxylate reductase activity: pimelate semialdehyde to heptanedial (NADPH consumption, A340); type: biochemical; details: purified enzyme enhanced by sfp gene product, 2 mM pimelate semialdehyde, pH 7.5, room temperature, 20 min; against the empty vector control (FIG. 11)
Procedure: The N-terminal His-tagged carboxylate reductase of SEQ ID NO: 6 (see Example 3 and FIG. 6) was assayed using pimelate semialdehyde as substrate. The enzyme activity assay was performed in triplicate in a buffer composed of a final concentration of 50 mM HEPES buffer (pH=7.5), 2 mM pimelate semialdehyde, 10 mM MgCl2, 1 mM ATP and 1 mM NADPH. The enzyme activity assay reaction was initiated by adding purified carboxylate reductase and phosphopantetheine transferase or the empty vector control to the assay buffer containing the pimelate semialdehyde and then incubated at room temperature for 20 min. The consumption of NADPH was monitored by absorbance at 340 nm.

[4] = ω-transaminase activity, reverse direction: 7-aminoheptanoate to pimelate semialdehyde (L-alanine formation by RP-HPLC); type: biochemical; details: cell free extract, 10 mM 7-aminoheptanoate, 10 mM pyruvate, pH 7.5, 25° C., 4 h; against the empty vector control (FIG. 13)
Procedure: (§1) A nucleotide sequence encoding an N-terminal His-tag was added to the nucleic acid sequences from Chromobacterium violaceum, Pseudomonas syringae, Rhodobacter sphaeroides, and Vibrio fluvialis encoding the ω-transaminases of SEQ ID NOs: 7, 9, 10 and 12, respectively (see FIG. 6) such that N-terminal HIS tagged ω-transaminases could be produced. Each of the resulting modified genes was cloned into a pET21a expression vector under control of the T7 promoter and each expression vector was transformed into a BL21[DE3] E. coli host. The resulting recombinant E. coli strains were cultivated at 37° C. in a 250 mL shake flask culture containing 50 mL LB media and antibiotic selection pressure, with shaking at 230 rpm. Each culture was induced overnight at 16° C. using 1 mM IPTG.
(§2) The pellet from each induced shake flask culture was harvested via centrifugation. Each pellet was resuspended and lysed via sonication. The cell debris was separated from the supernatant via centrifugation and the cell free extract was used immediately in enzyme activity assays.
Enzyme activity assays in the reverse direction (i.e., 7-aminoheptanoate to pimelate semialdehyde) were performed in a buffer composed of a final concentration of 50 mM HEPES buffer (pH=7.5), 10 mM 7-aminoheptanoate, 10 mM pyruvate and 100 μM pyridoxyl 5′ phosphate. Each enzyme activity assay reaction was initiated by adding cell free extract of the ω-transaminase gene product or the empty vector control to the assay buffer containing the 7-aminoheptanoate and incubated at 25° C. for 4 h, with shaking at 250 rpm. The formation of L-alanine from pyruvate was quantified via RP-HPLC.

[5] = from the literature; cited from earlier work
[6] = ω-transaminase activity: 7-aminoheptanol to 7-oxoheptanol (L-alanine formation by RP-HPLC); type: biochemical
Procedure: A nucleotide sequence encoding an N-terminal His-tag was added to the Chromobacterium violaceum, Pseudomonas syringae and Rhodobacter sphaeroides nucleic acids encoding the ω-transaminases of SEQ ID NOs: 7, 9 and 10, respectively (see FIG. 6) such that N-terminal HIS tagged ω-transaminases could be produced. The modified genes were cloned into a pET21a expression vector under the T7 promoter. Each expression vector was transformed into a BL21[DE3] E. coli host. Each resulting recombinant E. coli strain were cultivated at 37° C. in a 250 mL shake flask culture containing 50 mL LB media and antibiotic selection pressure, with shaking at 230 rpm. Each culture was induced overnight at 16° C. using 1 mM IPTG.
as §2
Enzyme activity assays in the reverse direction (i.e., 7-aminoheptanol to 7-oxoheptanol) were performed in a buffer composed of a final concentration of 50 mM HEPES buffer (pH=7.5), 10 mM 7-aminoheptanol, 10 mM pyruvate, and […] pyridoxyl 5′ phosphate. Each enzyme activity assay reaction was initiated by adding cell free extract of the ω-transaminase gene product or the empty vector control to the assay buffer containing the 7-aminoheptanol and then incubated at 25° C. for 4 h, with shaking at 250 rpm. The formation of L-alanine was quantified via RP-HPLC.

[7] = ω-transaminase activity, forward direction: pimelate semialdehyde to 7-aminoheptanoate (pyruvate formation by RP-HPLC); type: biochemical; details: conclusion from reverse and forward assays of Example 1
Procedure: as §1, §2
Enzyme activity in the forward direction (i.e., pimelate semialdehyde to 7-aminoheptanoate) was confirmed for the transaminases of SEQ ID NO 9, SEQ ID NO 10 and SEQ ID NO 12. Enzyme activity assays were performed in a buffer composed of a final concentration of 50 mM HEPES buffer (pH=7.5), 10 mM pimelate semialdehyde, 10 mM L-alanine and 100 μM pyridoxyl 5′ phosphate. Each enzyme activity assay reaction was initiated by adding a cell free extract of the ω-transaminase gene product or the empty vector control to the assay buffer containing the pimelate semialdehyde and incubated at 25° C. for 4 h, with shaking at 250 rpm. The formation of pyruvate was quantified via RP-HPLC.

Row | Molecule | acceptance of N7-acetyl-7-aminoheptanoate as substrate (NADPH consumption) [1] | acceptance of pimelate as substrate (NADPH consumption) [2] | acceptance of pimelate semialdehyde as substrate, forming heptanedial (NADPH consumption) [3] | acceptance of 7-aminoheptanoate as substrate (conversion of pyruvate to L-alanine) [4] | activity on 7-aminoheptanoate (conversion to pimelate semialdehyde) [5] | acceptance of 7-aminoheptanol as substrate (conversion of pyruvate to L-alanine) ([6]; cell free extract, 10 mM 7-aminoheptanol, 10 mM pyruvate, pH 7.5, 25° C., 4 h, against the empty vector control (FIG. 17)) | acceptance of 7-oxoheptanol as substrate forming 7-aminoheptanol ([6]; concluded from the reversibility of the ω-transaminase activity (Example 1)) | reversibility of ω-transaminase activity: pimelate semialdehyde accepted, 7-aminoheptanoate synthesized [7]
1 | SEQ ID NO: 6: Segniliparus rotundus carboxylate reductase, N-terminal HIS tagged (protein, listed as Segniliparus rotundus, N-terminal His tag, Segniliparus rotundus carboxylate reductase, N-terminal HIS tagged) MTQSHTQGPQASAAHSRLARRAAELLATDPQAAATLPDPEVVRQATRPGLRLAERVDAILSGYADRPALGQRSFQTVKDPITGRSSVELLPTFDTITYRELRERATAIASDLAHHPQAPAKPGDFLASIGFISVDYVAIDIAGVFAGLTAVPLQTGATLATLTAITAETAPTLFAASIEHLPTAVDAVLATPSVRRLLVFDYRAGSDEDREAVEAAKRKIADAGSSVLVDVLDEVIARGKSAPKAPLPPATDAGDDSLSLLIYTSGSTGTPKGAMYPERNVAHFWGGVWAAAFDEDAAPPVPAINITFLPLSHVASRLSLMPTLARGGLMHFVAKSDLSTLFEDLKLARPTNLFLVPRVVEMLYQHYQSELDRRGVQDGTREAEAVKDDLRTGLLGGRILTAGFGSAPLSAELAGFIESLLQIHLVDGYGSTEAGPVWRDGYLVKPPVTDYKLIDVPELGYFSTDSPHPRGELAIKTQTILPGYYKRPETTAEVFDEDGFYLTGDVVAQIGPEQFAYVDRRKNVLKLSQGEFVTLAKLEAAYSSSPLVRQLFVYGSSERSYLLAVIVPTPDALKKFGVGEAAKAALGESLQKIARDEGLQSYEVPRDFIIETDPFTVENGLLSDARKSLRPKLKEHYGERLEAMYKELADGQANELRDIRRGVQQRPTLETVRRAAAAMLGASAAEIKPDAHFTDLGGDSLSALTFSNFLHDLFEVDVPVGVIVSAANTLGSVAEHIDAQLAGGRARPTFATVHGKGSTTIKASDLTLDKFIDEQTLEAAKHLPKPADPPRTVLLTGANGWLGRFLALEWLERLAPAGGKLITIVRGKDAAQAKARLDAAYESGDPKLAGHYQDLAATTLEVLAGDFSEPRLGLDEATWNRLADEVDFISHPGALVNHVLPYNQLFGPNVAGVAEIIKLAITTRIKPVTYLSTVAVAAGVEPSALDEDGDIRTVSAERSVDEGYANGYGNSKWGGEVLLREAHDRTGLPVRVFRSDMILAHQKYTGQVNATDQFTRLVQSLLATGLAPKSFYELDAQGNRQRAHYDGIPVDFTAESITTLGGDGLEGYRSYNVFNPHRDGVGLDEFVDWLIEAGHPITRIDDYDQWLSRFETSLRGLPESKRQASVLPLLHAFARPGPAVDGSPFRNTVFRTDVQKAKIGAEHDIPHLGKALVLKYADDIKQLGLL | accepted N7-acetyl-7-aminoheptanoate as substrate | accepted pimelate as substrate | accepted pimelate semialdehyde as substrate | – | – | – | – | –
2 | SEQ ID NO: 7: Chromobacterium violaceum ω-transaminase, N-terminal HIS tagged (protein, listed as Chromobacterium violaceum, N-terminal His tag, Chromobacterium violaceum ω-transaminase, N-terminal HIS tagged) MQKQRTTSQWRELDAAHHLHPFTDTASLNQAGARVMTRGEGVYLWDSEGNKIIDGMAGLWCVNVGYGRKDFAEAARRQMEELPFYNTFFKTTHPAVVELSSLLAEVTPAGFDRVFYTNSGSESVDTMIRMVRRYWDVQGKPEKKTLIGRWNGYHGSTIGGASLGGMKYMHEQGDLPIPGMAHIEQPWWYKHGKDMTPDEFGVVAARWLEEKILEIGADKVAAFVGEPIQGAGGVIVPPATYWPEIERICRKYDVLLVADEVICGFGRTGEWFGHQHFGFQPDLFTAAKGLSSGYLPIGAVFVGKRVAEGLIAGGDFNHGFTYSGHPVCAAVAHANVAALRDEGIVQRVKDDIGPYMQKRWRETFSRFEHVDDVRGVGMVQAFTLVKNKAKRELFPDFGEIGTLCRDIFFRNNLIMRACGDHIVSAPPLVMTRAEVDEMLAVAERCLEEFEQTLKARGLA | – | – | – | accepted 7-aminoheptanoate as substrate | demonstrated analogous activity accepting 7-aminoheptanoic acid as amino donor | accepted 7-aminoheptanol as substrate | accept 7-oxoheptanol as substrate and form 7-aminoheptanol | accepted pimelate semialdehyde as substrate and synthesized 7-aminoheptanoate as a reaction product
